Test results taken from article PMC7015924.

Test system: His-SUMO-Piwi PAZ domain (Drosophila melanogaster)
Assay: ITC
Conditions: 2'-O-methyl at 3' end; ITC buffer not in material (PAZ purified in 10 mM Tris-HCl pH 8.0, 500 mM NaCl); cleavage assays 27 C, 17 h (bead/supernatant assay conditions not given) …

In the case of 8-mer RNA with 3' 2'-O-methyl, the Kd is reported as 4 µM.
